In patent US20210002649:

Biological target: PD-1 Ligand (PD-L1) (UniProt Q9NZQ7)
Sequence (Q9NZQ7 19-290): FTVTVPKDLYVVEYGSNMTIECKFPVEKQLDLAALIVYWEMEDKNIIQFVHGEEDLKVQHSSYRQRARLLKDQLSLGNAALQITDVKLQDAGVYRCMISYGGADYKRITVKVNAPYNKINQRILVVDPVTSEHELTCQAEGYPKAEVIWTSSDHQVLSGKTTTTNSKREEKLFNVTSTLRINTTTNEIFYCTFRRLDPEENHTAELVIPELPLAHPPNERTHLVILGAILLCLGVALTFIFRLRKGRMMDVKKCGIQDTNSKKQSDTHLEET

Question: Which “PD-L1 K63-linked poly-ubiquitination (gel images)” value does the source give for “WW domain containing E3 ubiquitin protein ligase 1 (WWP1)” here?
Answer: Its value is “WWP1 triggers PD-L1 K63-linked poly-ubiquitination”.

Question: What about the “PD-L1 ubiquitination (gel images)” value of the same substance?
Answer: Its value is “WWP1 triggers PD-L1 ubiquitination in a catalytic dependent manner”.
